Article PMC6430795, “Complex formation of APP with GABAB receptors links axonal trafficking to amyloidogenic processing” (Nature Communications, 2019)

B1: recombinant SD1/2 protein (sushi domains 1 and 2 of GB1a) (domain or fragment, UniProt Q9Z0U4 20-158, looked up)
chain: QTPNATSEGCQIIHPPWEGGIRYRGLTRDQVKAINFLPVDYEIEYVCRGEREVVGPKVRKCLANGSWTDMDTPSRCVRICSKSYLTLENGKVFLTGGDLPALDGARVEFRCDPDFHLVGSSRSVCSQGQWSTPKPHCQV
notes: the two N-terminal sushi domains (SD1 and SD2) of the GABAB receptor subunit GB1a; the NMR samples are called unlabeled recombinant SD1/2; also called Myc-SD1/2; Myc-SDI/II

Assays:
[1] = molecular target: Myc-GB1a (UniProt Q9Z0U4)
[2] = molecular target: T1, APP on tsA201 cells (UniProt P05067-4 18-695); experiment: immunostaining of cells or tissue; cell surface binding: transfected tsA201 cells incubated 30 min at room temperature with 0.2 to 2000 nM purified Myc-SD1/2 in OptiMEM, fixed, bound SD1/2 stained with anti-c-Myc and put into ratio with the expressed protein; apparent KD from a Hill equation with a coefficient of 1; conditions: one partner purified
T1 construct: expression was read with goat anti-APP; source: tsA201 cells, transfected, on cells

[3] = molecular target: T2, AJAP-1 on tsA201 cells (UniProt A2ALI5 44-412); experiment: as above; conditions: one partner purified
T2 construct: adherens junction-associated protein 1; cDNA from Source BioScience in pcDNA3; source: tsA201 cells, transfected, on cells
T2 sequence (looked up): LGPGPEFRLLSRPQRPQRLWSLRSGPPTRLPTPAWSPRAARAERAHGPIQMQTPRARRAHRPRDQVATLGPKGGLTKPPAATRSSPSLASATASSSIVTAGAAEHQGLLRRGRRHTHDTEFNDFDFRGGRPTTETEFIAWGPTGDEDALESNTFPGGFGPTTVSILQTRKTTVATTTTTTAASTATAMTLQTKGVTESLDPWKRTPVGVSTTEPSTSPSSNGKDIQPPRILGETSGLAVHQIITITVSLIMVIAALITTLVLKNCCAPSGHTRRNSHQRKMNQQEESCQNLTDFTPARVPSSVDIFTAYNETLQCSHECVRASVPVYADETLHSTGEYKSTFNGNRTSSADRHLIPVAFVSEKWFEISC

[4] = molecular target: T3, HA-PIANP on tsA201 cells (UniProt Q6P1B3 28-278); experiment: as above; conditions: one partner purified
T3 construct: PILRα-associated neural protein; cDNA from OriGene in pCMV6 with an HA-tag insertion after amino acid 27; source: tsA201 cells, transfected, on cells; not shown: HA, internal (after residue 27), kept
T3 sequence (looked up): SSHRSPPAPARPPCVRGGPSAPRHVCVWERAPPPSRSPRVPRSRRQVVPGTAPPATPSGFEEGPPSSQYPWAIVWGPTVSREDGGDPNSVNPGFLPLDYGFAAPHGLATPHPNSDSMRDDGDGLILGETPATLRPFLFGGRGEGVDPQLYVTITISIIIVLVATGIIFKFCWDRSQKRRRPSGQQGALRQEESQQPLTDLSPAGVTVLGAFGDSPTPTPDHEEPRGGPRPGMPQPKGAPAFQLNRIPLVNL

Molecule	reduction of BACE1-mediated Aβ40 secretion into the medium of HEK293 cells in the presence of GB1a/2 receptors, ELISA 32 h post-transfection [1]	reduction of the APP-βCTF/APP-FL ratio (BACE1 cleavage of APP) in HEK293 cells in the presence of GB1a/2 receptors, immunoblot densitometry [1]	reduction of the sAPPβ/APP-FL ratio (BACE1 cleavage of APP) in HEK293 cells in the presence of GB1a/2 receptors, immunoblot densitometry [1]	Kd [2]	Kd [3]	Kd [4]
APP (APP695, pCAX-APP695) (from UniProt P05067-4 18-695) (natural protein)	77%	60%	57%	–	–	–
B1	–	–	–	188 nM	6.4 nM	29.1 nM
